Data taken from patent publication US20120088276.

Key:
[1] = target: T1, E. coli (strain K12) RecA protein, wild type
T1 chain: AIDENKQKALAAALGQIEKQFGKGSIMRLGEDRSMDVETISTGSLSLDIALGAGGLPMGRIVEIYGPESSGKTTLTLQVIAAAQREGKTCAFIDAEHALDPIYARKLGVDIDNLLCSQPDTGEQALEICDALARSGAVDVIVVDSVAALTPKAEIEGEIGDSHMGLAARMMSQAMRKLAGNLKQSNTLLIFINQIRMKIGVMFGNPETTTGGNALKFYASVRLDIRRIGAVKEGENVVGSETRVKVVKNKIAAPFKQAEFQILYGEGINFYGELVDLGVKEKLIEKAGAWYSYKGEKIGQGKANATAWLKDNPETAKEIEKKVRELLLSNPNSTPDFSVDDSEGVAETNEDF

B1: bacteriophage P1 Ref protein (wild type) (protein)
chain: MKTIEQKIEQCRKWQKAARERAIARQREKLADPVWRESQYQKMRDTLDRRIAKQKERPPASKTRKSAVKIKSRGLKGRTPTAEERRIANALGALPCIACYMHGVISNEVSLHHIAGRTAPGCHKKQLPLCRWHHQHAAPAEVREKYPWLVPVHADGVVGGKKEFTLLNKSEMELLADAYEMANIMH
With B1 the “targeted cleavage of both strands of duplex DNA at RecA-created D-loops (restriction analysis, agarose gel)” value (RecA E38K mutant protein) was “the Ref-induced breaks in the circular double stranded DNA occur where the RecA-bound oligonucleotide invaded the duplex DNA to form a D-loop” and the “nuclease activity (degradation of M13mp18 circular ssDNA, agarose gel)” value [1] was “the nuclease activity depended on both Ref and active RecA filaments”.
